Reference: US10772928B2, “Modulation and detection of a neuronal alternative splicing regulatory network for treatment and diagnosis of neurological disorders” (The Governing Council of the University of Toronto, priority 2014, dated 2020)

Target: T1, nSR100 (Mus musculus, UniProt Q8BKA3)
T1 construct: host or cells: mouse N2A cells
T1 sequence (Q8BKA3 1-608): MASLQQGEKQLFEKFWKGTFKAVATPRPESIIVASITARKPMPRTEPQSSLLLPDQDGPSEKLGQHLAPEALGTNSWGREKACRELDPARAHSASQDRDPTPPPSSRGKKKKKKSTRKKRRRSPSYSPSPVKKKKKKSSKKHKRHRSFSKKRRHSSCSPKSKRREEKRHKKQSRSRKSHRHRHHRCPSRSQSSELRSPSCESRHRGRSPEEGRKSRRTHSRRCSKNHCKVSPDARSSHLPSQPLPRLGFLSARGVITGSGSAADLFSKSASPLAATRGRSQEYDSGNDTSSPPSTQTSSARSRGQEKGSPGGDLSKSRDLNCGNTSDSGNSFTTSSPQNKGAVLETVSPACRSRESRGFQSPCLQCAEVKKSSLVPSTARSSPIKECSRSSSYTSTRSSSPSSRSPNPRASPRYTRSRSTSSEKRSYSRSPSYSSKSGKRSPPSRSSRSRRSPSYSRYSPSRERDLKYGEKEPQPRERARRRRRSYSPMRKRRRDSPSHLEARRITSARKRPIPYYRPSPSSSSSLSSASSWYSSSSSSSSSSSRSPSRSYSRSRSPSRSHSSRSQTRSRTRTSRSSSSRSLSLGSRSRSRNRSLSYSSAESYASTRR
Assay: AP-MS nSR100 interaction partners from mouse N2A cells (Table 5)
Assay type: binding
Conditions: for AvgP (average of the SAINT scores) / MaxP (maximal SAINT score): bait Srrm4; for FoldChange between the prey Avg spectra of the bait and control purifications: bait Srrm4, 0.1 added to prevent division by 0; for AvgSpec (average number of spectra per replicate): bait Srrm4, 2 replicates; for Spectra (number of spectra for the prey in the purification of the bait): AP-MS; for SpecSum: bait Srrm4, sum of spectra over 2 replicates

[1] = bait Srrm4, biological replicate 1 (first number of the cell)
[2] = bait Srrm4, biological replicate 2 (second number of the cell)

From the text: By applying affinity purification coupled to mass-spectrometry (AP-MS), several interaction nSR100 partner proteins were detected that provide insight into mechanisms of post-translational regulation of nSR100 levels.

Molecule	AvgP (average of the SAINT scores)	MaxP (maximal SAINT score)	FoldChange between the prey Avg spectra of the bait and control purifications	AvgSpec (average number of spectra per replicate)	Spectra (number of spectra for the prey in the purification of the bait) [1]	Spectra (number of spectra for the prey in the purification of the bait) [2]	SpecSum
Sf3b3 (protein, UniProt Q921M3 1-1217, looked up) Splicing factor 3B subunit 3: MFLYNLTLQRATGISFAIHGNFSGTKQQEIVVSRGKILELLRPDPNTGKVHTLLTVEVFGVIRSLMAFRLTGGTKDYIVVGSDSGRIVILEYQPSKNMFEKIHQETFGKSGCRRIVPGQFLAVDPKGRAVMISAIEKQKLVYILNRDAAARLTISSPLEAHKANTLVYHVVGVDVGFENPMFACLEMDYEEADNDPTGEAAANTQQTLTFYELDLGLNHVVRKYSEPLEEHGNFLITVPGGSDGPSGVLICSENYITYKNFGDQPDIRCPIPRRRNDLDDPERGMIFVCSATHKTKSMFFFLAQTEQGDIFKITLETDEDMVTEIRLKYFDTVPVAAAMCVLKTGFLFVASEFGNHYLYQIAHLGDDDEEPEFSSAMPLEEGDTFFFQPRPLKNLVLVDELDSLSPILFCQIADLANEDTPQLYVACGRGPRSSLRVLRHGLEVSEMAVSELPGNPNAVWTVRRHIEDEFDAYIIVSFVNATLVLSIGETVEEVTDSGFLGTTPTLSCSLLGDDALVQVYPDGIRHIRADKRVNEWKTPGKKTIVKCAVNQRQVVIALTGGELVYFEMDPSGQLNEYTERKEMSADVVCMSLANVPPGEQRSRFLAVGLVDNTVRIISLDPSDCLQPLSMQALPAQPESLCIVEMGGTEKQDELGERGSIGFLYLNIGLQNGVLLRTVLDPVTGDLSDTRTRYLGSRPVKLFRVRMQGQEAVLAMSSRSWLSYSYQSRFHLTPLSYETLEFASGFASEQCPEGIVAISTNTLRILALEKLGAVFNQVAFPLQYTPRKFVIHPESNNLIIIETDHNAYTEATKAQRKQQMAEEMVEAAGEDERELAAEMAAAFLNENLPESIFGAPKAGNGQWASVIRVMNPIQGNTLDLVQLEQNEAAFSVAVCRFSNTGEDWYVLVGVAKDLILSPRSVAGGFVYTYKLVNNGEKLEFLHKTPVEEVPAAIAPFQGRVLIGVGKLLRVYDLGKKKLLRKCENKHIANYISGIQTIGHRVIVSDVQESFIWVRYKRNENQLIIFADDTYPRWVTTASLLDYDTVAGADKFGNICVVRLPPNTNDEVDEDPTGNKALWDRGLLNGASQKAEVIMNYHVGETVLSLQKTTLIPGGSESLVYTTLSGGIGILVPFTSHEDHDFFQHVEMHLRSEHPPLCGRDHLSFRSYYFPVKNVIDGDLCEQFNSMEPNKQKNVSEELDRTPPEVSKKLEDIRTRYAF	1	1	3.48	97.5	90	105	195
Rad23b (protein, UniProt P54728 1-416, looked up) UV excision repair protein …: MQVTLKTLQQQTFKIDIDPEETVKALKEKIESEKGKDAFPVAGQKLIYAGKILSDDTALKEYKIDEKNFVVVMVTKPKAVTTAVPATTQPSSTPSPTAVSSSPAVAAAQAPAPTPALPPTSTPASTAPASTTASSEPAPAGATQPEKPAEKPAQTPVLTSPAPADSTPGDSSRSNLFEDATSALVTGQSYENMVTEIMSMGYEREQVIAALRASFNNPDRAVEYLLMGIPGDRESQAVVDPPPQAVSTGTPQSPAVAAAAATTTATTTTTSGGHPLEFLRNQPQFQQMRQIIQQNPSLLPALLQQIGRENPQLLQQISQHQEHFIQMLNEPVQEAGSQGGGGGGGGGGGGGGGGGIAEAGSGHMNYIQVTPQEKEAIERLKALGFPEGLVIQAYFACEKNENLAANFLLQQNFDED	1	1	35	3.5	3	4	7
Ftsjd2 (protein, UniProt Q9DBC3 1-837, looked up) Cap-specific mRNA …: MKRRTDPECTAPLKKQKRIGELARHLSSTSDDEPLSSVNHAAKASATSLSGSDSETEGKQPCSDDFKDAFKADSLVEGTSSRYSMYNSVSQRLMAKMGFREGEGLGKYSQGRKDIVETSNQKGRRGLGLTLQGFDQELNVDWRDEPEPNACEQVSWFPECTTEIPDSREMSDWMVVGKRKMVIEDETEFCGEELLHSMLKCKSVFDILDGEEMRRARTRANPYEMIRGVFFLNRAAMKMANMDFVFDRMFTNPLDSSGKPLLKESDIDLLYFADVCAGPGGFSEYVLWRKKWHAKGFGMTLKGPNDFKLEDFYSASSELFEPYYGEGGVDGDGDITRPENINAFRNFVLDNTDRKGVHFVMADGGFSVEGQENLQEILSKQLLLCQFLMALSVVRTGGHFVCKTFDLFTPFSVGLIYLLYCCFERVCLFKPITSRPANSERYVVCKGLKVGIDDVREYLFSVNIKLNQLRNTESDVNLVVPLMVIKGDHEFNDYMIRSNESYCSLQIKALAKIHAFVQDTTLSEPRQAEIRKECLQLWKIPDQARVAPSSSDPKFKFFELIKDTDINIFSYKPTLLTAKTLEKIRPVLEYRCMVSGSEQKFLLGLGKSQIYTWDGRQSDRWVKLDLKTELPRDTLLCVEIVHELKGEGKAQRKISAIHILDVLVLNGSDVREQHFNQRIQLAEKFVKAVSKPSRPDMNPIRVKEVYRLEEMEKIFVRLEMKLIKGSGGTPKLSYTGRDDRHFVPTGVYIVRTVNEPWTMGFSKSNNRKFFYNKKTQKSVYALPTESIAPFHTCYYSRLFWEWGDGFHMRDSQKPQDPDKLSKEDVLSFIQSHNPLGP	1	1	40	4	4|4	4|4	8
Srrm1 (protein, UniProt Q52KI8 1-946, looked up) Serine/arginine repetitive …: MDAGFFRGTSAEQDNRFSNKQKKLLKQLKFAECLEKKVDMSKVNLEVIKPWITKRVTEILGFEDDVVIEFIFNQLEVKNPDSKMMQINLTGFLNGKNAREFMGELWPLLLSAQENIAGIPSAFLELKKEEIKQRQIEQEKLASLKKQDEDKDKRDKEEKESSREKRERSRSPRRRKSRSPSPRRRSSPVRRERKRSHSRSPRHRTKSRSPSPAPEKKEKSPELPEPSVRMKDSSVQEATSTSDILKAPKPEPVPEPKEPSPEKNSKKEKEKTRPRSRSRSKSRSRTRSRSPSHTRPRRRHRSRSRSYSPRRRPSPRRRPSPRRRTPPRRMPPPPRHRRSRSPGRRRRRSSASLSGSSSSSSSSRSRSPPKKPPKRTSSPPRKTRRLSPSASPPRRRHRPSSPATPPPKTRHSPTPQQSNRTRKSRVSVSPGRTSGKVTKHKGTEKRESPSPAPKPRKVELSESEEDKGSKMAAADSVQQRRQYRRQNQQSSSDSGSSSTSEDERPKRSHVKNGEVGRRRRHSPSRSASPSPRKRQKETSPRMQMGKRWQSPVTKSSRRRRSPSPPPARRRRSPSPAPPPPPPPPPPRRRRSPTPPPRRRTPSPPPRRRSPSPRRYSPPIQRRYSPSPPPKRRTASPPPPPKRRASPSPPPKRRVSHSPPPKQRSPTVTKRRSPSLSSKHRKGSSPGRSTREARSPQPNKRHSPSPRPRAPQTSSPPPVRRGASASPQGRQSPSPSTRPIRRVSRTPEPKKIKKTAMATQRNIRRVSKSPKADSLSRAASPSPQSVRRVSSSRSVSGSPEPAAKKPPAPPSPVQSQSPSTNWSPAVPAKKAKSPTPSLSPARNSDQEGGGKKKKKKKDKKHKKDKKHKKHKKHKKEKAVTIATPATAAPAAVSAATTTSAQEEPAAAPEPRKETESEAEDDNLDDLERHLREKALRSMRKAQVSPQS	1	1	6.78	30.5	25	36	61
